{
  "source": "the nanobody polyreactivity screen of Harvey et al. (2022)",
  "data": [
    {"experiment": "yeast display, Sf9 membrane polyspecificity reagent, FACS + sequencing; frameworks hold sequencing errors", "outline": "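A synthetic nanobody library was expressed on Saccharomyces cerevisiae BJ5465 by galactose induction for 36–48 hours. The library was stained for 1 hour at 4 °C with 10% biotinylated, detergent-solubilized Sf9 membrane reagent and enriched with streptavidin microbeads before FACS. Low and high (top ~1%) gates were set on anti-HA fluorescence for expression and streptavidin fluorescence for reagent binding, and each polyreactivity label reflects the gate of origin.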", "values": [
      {"sequence": "QVQVVKSGGGLVQAGGSLSLSCAASGRTFGVYAMGWYRQAPGNESELVAGIRWRGGSTYYADSVKGRFTISRDNSKNTVYLQMKSLKPEETAVYYCAADVDLVKDDYWGQGTQVTVSS", "polyreactivity (PSR sort gate)": "low polyreactivity"},
      {"sequence": "QVQLVESGGGLVQAGGSLRLSCAASGRIFGYYAMGWYRQAPGKERELVATITFGGGSTYYADSVKGRFTISRDNAKNTVYLQMNSLIPEDSAVYYCAADSGYLGIYGDEYSWGQGTQVTVSS", "polyreactivity (PSR sort gate)": "low polyreactivity"},
      {"sequence": "QVQLVESGLGLVQAGGSLRLSCAASGSTFSNNAMGWYRQAPGKERELVASITRSGGSTYYADTVKGRFTISRDNAKNTVYLQMNSLKPEDTAVYYCNADGYYDYDYGEWGQGTQVTGSS", "polyreactivity (PSR sort gate)": "low polyreactivity"},
      {"sequence": "QVQLVESGGGLVQAGGSLRLSCAASGFTFSRNVMGWYRQAPGKERELVADITLSGASTYYADSVKGRFTISRDNAKNTVYLQMNSLKPEDTADYYCAADPYHWRWGWRHDYWGQGTQVTVSS", "polyreactivity (PSR sort gate)": "low polyreactivity"},
      {"sequence": "QVQLVESGGGLVQAGGSLRLSCAASGITFNFYAMGWYRQAPGKERELVAAITQSGGSTYYADSVKGRFTISRDNAKNTVYLQMNSLKPEDTAVYYCAAARTGHMYYWGQGTQVTVSS", "polyreactivity (PSR sort gate)": "high polyreactivity"},
      {"sequence": "QVQLVESGGGLVQAGGSLRLSCAASGSTFGWNAMGWYRKAPGKERELVAAISSYGGITYYADSVKGRFTISRDNEKNTVYLQMNSLKPEDTAVYYCAAERDDDWVNYWGQVTQVTVSS", "polyreactivity (PSR sort gate)": "low polyreactivity"},
      {"sequence": "QVQLVESGGGLVQAGGSLRLSCAASGYIFYYYTMGWYRQATGKEREFVAAISYSVGSTYADSVKGRFTISRDNAKNTVYLQMNSLKPEDTAVYYCNAVTIRNVYYSGGYWGQGTQVTVSS", "polyreactivity (PSR sort gate)": "high polyreactivity"},
      {"sequence": "QVQLVESGGGLVQAGGSLRLSCAASGFIFGGNVMGWYRQAPGKEREFVAAITDGDGSTYYADSVKGRFTISRDNAKNTVYLQMNSLKPEDTAVYYCAADVYYADVYPVEYWGQGTQVTVSS", "polyreactivity (PSR sort gate)": "high polyreactivity"},
      {"sequence": "QVQLVEAGGGLVQAGGSLRLSCAASGLIFWAYAMGWYRQAPGKERELVAAINWRGGSTYYADSVKGRFTISRDNAKNTVDLQMNSLKPEDTAVYYCADDSYYDEYDYLGQGTQVTVSS", "polyreactivity (PSR sort gate)": "low polyreactivity"},
      {"sequence": "QVQLVESGGGLVQAGGSLRLSCAASGIISRWYAMGWYRQAPGKERELVAAIRWSGGRTYYADSVKGRFTISRDNAKNTVYLQMNSLKPEDTAVYYCAADVRQRGIYGPGPHYYWGQGTQVTVSS", "polyreactivity (PSR sort gate)": "low polyreactivity"},
      {"sequence": "LVQLVESRGGLVQAGGSLRLSCAASGRTFAWYAMGWYRPAPGKERELVAAISNVGSTYYADTVKGRFTISRDNAKNTVYLQMNSLKPEDTAVYYCNPDAVSTDGREYWGQGTQVTVSS", "polyreactivity (PSR sort gate)": "low polyreactivity"},
      {"sequence": "QVQLVESGGGLVQAGGSLRLSCAASGSLLADNAMGWSRQAPGKERELVAAISRRGGRTYYADSVKGRFTISRDNAKNTVYLQMNSLKPEDTAVYYCAAVGSFHIVDYWGQGTQVTVSS", "polyreactivity (PSR sort gate)": "high polyreactivity"},
      {"sequence": "QVQLVESGGGLVQEGGSLRLSCAASGYIFKYYAMGWYRQAPGKERELVAAIRYSGGITYYADSVKGRFTISRDNAKNTVYLQMQSLKPEDTAVSYCAADYIITYRSGRREYVYWGQGTQVTVSS", "polyreactivity (PSR sort gate)": "high polyreactivity"},
      {"sequence": "QVQLVESGGALVQAGGSLRLSCAASGSIFGFYMGWYRQAPGKERELVAAISGSGGNTYYADSVKGRFTISRDNAKNTVYLQMNSLKPEDTSVYYCAAERWDLWLLYDYWGQGTQVTVSS", "polyreactivity (PSR sort gate)": "high polyreactivity"},
      {"sequence": "QVQLVESGGGLVQAGGSLRLSCAASGRIFGPYTMGWYRQAPAKEREFVAAITRRGGSTYYADSVKGRFTISRDNAKNTVYLQMNSLKPEDTAVYYCAAVGLKRSLGYSWGQGTQVTVSS", "polyreactivity (PSR sort gate)": "low polyreactivity"},
      {"sequence": "QVQLVETGGGLVQAGGSLRLSCAASGRTFEYNAMGWYRQAPGKERELVATIRYSGTSTYADSVKGRFTISRDNAKNPVYLQMNSQKPEDTAVYYCAKQVRYYGYKYNYWGQGTQVTVSS", "polyreactivity (PSR sort gate)": "high polyreactivity"},
      {"sequence": "QVQLVESGGGLVQAGGSLRLSCAASGVNAMGWYRQAPGKEREIVAAITSIGGSTYYADSVKGRFTISRDNAKNTVSLQMNSLKPEDTAVYYCNTDRGPVKVSPLYESWGQGTQVTVSS", "polyreactivity (PSR sort gate)": "low polyreactivity"},
      {"sequence": "QDQLVESGGGLVEAGGSLRLSCAASGRTFWLNAMGWYRQAPGKERELVATISSSSGSTTYADSVKGRFTSSRDNAKNTVYIQMNSLKPEDTAVYYCNVDDPFYSGVVEFDYWGQGTQVTVSS", "polyreactivity (PSR sort gate)": "low polyreactivity"},
      {"sequence": "QVQLVESAGGLVQAGGSLRLSCAASGSIFYRYVMGWYRQAPGKERELVAAITSDGSTNYADSVKGRFTISRDNAKNTVYLQMNSLKPEDSAVYYCNARSYRGRFDYWGLGTQVTVSS", "polyreactivity (PSR sort gate)": "low polyreactivity"},
      {"sequence": "QVQLVESGGGIVQARGSLRLSCAASGRIFAPYAMGWYRQAPGKERELVAAIRISGDSTYYADSVKGRFTISRDNAKNTVYLQMNSLKPHDTAVYYCAAEYYILHWFGYAGYPAYNYWGQGTQVTVSS", "polyreactivity (PSR sort gate)": "high polyreactivity"},
      {"sequence": "QVQLVESGGGLVQAGGSLRLSCAASGLTFEGYAMGWYRQAPGKERELVAAISSSSGRTYYADSVKGRFTISRDNAKNTVYLQMNSLKPEDTAVYYCAARPGSGRSYTSDYWGQGTQVTVSS", "polyreactivity (PSR sort gate)": "high polyreactivity"},
      {"sequence": "QVQLVESGGGLVQAGGSLRLSSAASGRIFRPYDMGWYRQAPGKERELVAAITQSGGITSYADSVKGRFTISRDNAMNTVYLQMNSLTPEDTAVYYCASTSRYTRSHYDWYDYWGQGTQVTVSS", "polyreactivity (PSR sort gate)": "low polyreactivity"},
      {"sequence": "QVQHVESGGGLVQAGGSLRLSCASSGSTFWAYAMGWYRLAPGKERELVATITGSVGGTYYADSVKGRFTISRDNAKNTVYLQMNSLKPEDTAVYYCATDAYVKGVYEISEDRVDYWGQGTQVTVSS", "polyreactivity (PSR sort gate)": "low polyreactivity"},
      {"sequence": "QVQLVESGGGLVQAGGSLRLSCAASGRIFGKNAMGWYRQAPGKERELVAAISANGGSTSYADSVKGRFTISRDNAKNTVYLQMNSLKPEDTAVYYCNVRRQLRGDYWGHGTQVTVSS", "polyreactivity (PSR sort gate)": "high polyreactivity"},
      {"sequence": "QVQLVESGGGLVQAGGSLRLSCAASGSTFRGYAKGWNRQAPGKERELVAAISSRGARTHYADSVKGRFTISRDNAKNTVYLQMNSLKPEDTAVYYCAVGSPYYDGMDYWGQGTQVTVSS", "polyreactivity (PSR sort gate)": "low polyreactivity"},
      {"sequence": "QVQLVESGGGLVQAGGSLRLSCAASGRTFRGNAMGWYRQAPGKERELVAAIRWNGGSTYYADSVKGRFTISRDNAKNTVYLQMNSLKPEDTAVYYCAVLRLDYWGQGTQVTVSS", "polyreactivity (PSR sort gate)": "high polyreactivity"},
      {"sequence": "QVQLVESGGGLVQAGGSLRLSCAASGFTNSMGWYRQAPGKERELVAAISYSGDSTNYADSVKGRFTISRDNAKNTVYLQMNSLKPQDTAVYYCNASSPYDYDWGQGTQVTVSS", "polyreactivity (PSR sort gate)": "low polyreactivity"},
      {"sequence": "QVQLVESGGGLVQAGGSLRLSCAASGRIFRFYAMGWYRQAPGKERELVASISSTGGSTYYADSVKGRFTISRDNAKNTVYLQMNSLKPEDTAVYYCNTVYGYVTTYGYWGQGTQVTVSS", "polyreactivity (PSR sort gate)": "high polyreactivity"},
      {"sequence": "QVQLVESGGGLVQAGGSLRLSCAASGYTFWDNAMGWYRQAPGKERELVAAITIRSGRTYYADSVKGRFTISRDNAKNTVYLQMNSLKPEDTAVYYCNAQIYTYRTGRGYSRMDYWGKGTQVTVSS", "polyreactivity (PSR sort gate)": "high polyreactivity"},
      {"sequence": "QVQLVESGGGLVQAGGSLRLSCADSGRTFSTYAMGWYRQAPGKERELVAAISSGGGRTYYADSVKGRFTISRDNAKNTVYLQINSLKPEDTAVYYCAADRYFRSRRSYEYWGQGTQVTVSS", "polyreactivity (PSR sort gate)": "low polyreactivity"},
      {"sequence": "QVQLEESGGGLVQAGGSLRLICAASGRIFGVNAMGWYRQAHGKERELVAVISSGGSTYYADSVKGRFTISRDNAKNTVYLQMNSLKPEDTAVYYCNAVVGSWFPYNLSDYWGEGTQVTVSS", "polyreactivity (PSR sort gate)": "low polyreactivity"},
      {"sequence": "QVQLVESGGGLVQAGGSLRLICAASGSIFSSYAMGWYRQAPGTGRELVASISRRGGSTYYADSVKGRFTISRDNAKNTVYLQMNSLKPEDTAVYYCNASGGPYRYYYWGQGTQVTVSS", "polyreactivity (PSR sort gate)": "low polyreactivity"},
      {"sequence": "QVQLVESGGGLVQAGGSLRLSCAASGFTFEYYAMGWYRQAPGKERELVAVITWNGGSTYYADSVKGRFTISRDNAKNTVYLQMNSLKPEDTAVYYCNVVPYLYNGGSHRYNYWGQGTQVTVSS", "polyreactivity (PSR sort gate)": "high polyreactivity"},
      {"sequence": "QVQLVESGGGLVQARGSLRLSCAASGFTFERYTMGWYRQAPGKERELVATISRRSGRTSYADSVKGRFTISRDNEMNSVYLQMNSLKPEDTAVYYCAVDDAYPDRYDYWGQGPQVTVSS", "polyreactivity (PSR sort gate)": "high polyreactivity"},
      {"sequence": "QVQLVESGGGLVQAGGSLRLSCAASGFTFRSYAMGWYRQAPGKEREFVAAINGRSGSTYADSVKGRFTISRDNAKNTVYLQMNSLNPEDTAVYYCAAGQRHKNSNRPDNYWGQGSQVTVSS", "polyreactivity (PSR sort gate)": "high polyreactivity"},
      {"sequence": "QVQLVDSGGGLVQAGGSLRLSCAASGSIFSAYAMGWYRQAPGKERELVAAITFGGSTYYADSVKGRFTISRDNAKNTVYLQMNSLKPEDTAVYYCNAYYPFVGLYLGHDYWGQGTQVTVSS", "polyreactivity (PSR sort gate)": "low polyreactivity"},
      {"sequence": "QVQLEESGGGLRQAGGRLRLSCAASGRTFYVNAKGWYRQAPGKERELVAAISWSGGSTYYADSVKGRFTITRDNAKNTVYLQMNSLKPEDTAVYYCAAEDIEVYEYWGQGTQVTVSS", "polyreactivity (PSR sort gate)": "low polyreactivity"},
      {"sequence": "QGQLVESGGGLVQAGGSLRLSCAASGSSFANYDMGRYRQAPGKERELVAAITSDGSTYYADSVKGRFTISRDNAKNTVYLQMNSLKPEDTAVYYCAASTPSDAWVDDWGQGTQVTVSS", "polyreactivity (PSR sort gate)": "low polyreactivity"},
      {"sequence": "QVQLVESGGGLVQAGGSLRLSSAASGSTFNSYAMGWYRQAPGKERELVAGITSRGTSTYYADSVKGRFTISRDNAKNTVYLQMNSLKPEDTAVYYCNKYHYWASPMNYWGHGTQVTVSS", "polyreactivity (PSR sort gate)": "high polyreactivity"},
      {"sequence": "QVQLVESGGGLVQAGGSLRLSCAASGRTFYSYSMGWYRQEPGQERELVALITWSGGTYYADSVKGRFTISRDNANNTVYLLMNSLKPEDTAVYYCNKYRPYGRIFHRAYGRDYWGQGTQVTVSS", "polyreactivity (PSR sort gate)": "high polyreactivity"},
      {"sequence": "QVQLVESGGGLVQAGGSLRLSCAASGSIYPNGLGWYRQAPGKERELVATITSGGSTYYADSVKGRFTISRDNAKNTVYLPMHSQKPEDTAVYYCAATVYGGYSGSGSNYWGQGTQVTVSS", "polyreactivity (PSR sort gate)": "low polyreactivity"},
      {"sequence": "QVQLVESGGGLVQAGGSLRLSCAASGGTIVWNAMGWYRQAPGKERELVAAITWSGGSTYYADSVKGRFTISRDNAKNTVYLPMNSLQPEATAVYYCNADRFGRAHVYPEFDYWGQGTQVTVSS", "polyreactivity (PSR sort gate)": "low polyreactivity"},
      {"sequence": "QVQLVESGGGLVQAGGSLRLSCAASGSIFSFNAMGWYRQAPGKERELVAVITRNGGSTYYADSVKGRFTISRDNAKNTVYLQKNSLKPEDTAVYYCAKRLYRHIMGYWGQGTQVTVSS", "polyreactivity (PSR sort gate)": "high polyreactivity"}
    ]}
  ]
}
